Laboratory results taken from US20060019893.

Molecular target: human FX, P00742
Sequence (P00742 whole entry, looked up): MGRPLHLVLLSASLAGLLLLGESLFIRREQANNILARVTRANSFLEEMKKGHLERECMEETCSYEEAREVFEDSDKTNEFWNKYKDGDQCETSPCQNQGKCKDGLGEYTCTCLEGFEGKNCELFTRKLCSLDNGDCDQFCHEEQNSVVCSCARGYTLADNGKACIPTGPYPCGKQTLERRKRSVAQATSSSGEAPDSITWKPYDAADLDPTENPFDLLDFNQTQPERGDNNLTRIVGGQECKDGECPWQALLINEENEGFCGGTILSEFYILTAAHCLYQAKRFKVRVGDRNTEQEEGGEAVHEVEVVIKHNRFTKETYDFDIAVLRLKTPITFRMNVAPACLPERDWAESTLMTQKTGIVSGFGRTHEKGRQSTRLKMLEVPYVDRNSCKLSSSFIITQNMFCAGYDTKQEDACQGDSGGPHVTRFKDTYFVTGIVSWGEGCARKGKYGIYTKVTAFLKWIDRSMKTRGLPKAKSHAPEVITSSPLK

B1: wildtype FVIIa (protein)
chain 1: ANAFLEELRPGSLERECKEEQCSFEEAREIFKDAERTKLFWISYSDGDQCASSPCQNGGSCKDQLQSYICFCLPAFEGRNCETHKDDQLICVNENGGCEQYCSDHTGTKRSCRCHEGYSLLADGVSCTPTVEYPCGKIPILEKRNASKPQGR
chain 2: IVGGKVCPKGECPWQVLLLVNGAQLCGGTLINTIWVVSAAHCFDKIKNWRNLIAVLGEHDLSEHDGDEQSRRVAQVIIPSTYVPGTTNHDIALLRLHQPVVLTDHVVPLCLPERTFSERTLAFVRFSLVSGWGQLLDRGATALELMVLNVPRLMTQDCLQQSRKVGDSPNITEYMFCAGYSDGSKDSCKGDSGGPHATHYRGTWYLTGIVSWGQGCATVGHFGVYTRVSQYIEWLQKLMRSEPRPGVLLRAPFP
Question: For B1, which Km, FX activation by relipidated TF•FVIIa (0.4 nM relipidated TF, 1 nM FVIIa) is on record?
Answer: The Km, FX activation by relipidated TF•FVIIa (0.4 nM relipidated TF, 1 nM FVIIa) was 0.13 µM.

Question: What about the Vmax, FX activation by relipidated TF•FVIIa (0.4 nM relipidated TF, 1 nM FVIIa) of the same protein?
Answer: Its Vmax, FX activation by relipidated TF•FVIIa (0.4 nM relipidated TF, 1 nM FVIIa) is 600 mOD405/min.

Question: And the Vmax/Km, FX activation by relipidated TF•FVIIa (mOD405/min/nM)?
Answer: The Vmax/Km, FX activation by relipidated TF•FVIIa (mOD405/min/nM) was 4.6.
